In test [1] the target is T1, tetratricopeptide repeat (TPR) domain of S. cerevisiae PEX5 (Gal4pBD-TPR, plasmid pAH987) (S. cerevisiae).
T1 sequence (P35056 whole entry, looked up): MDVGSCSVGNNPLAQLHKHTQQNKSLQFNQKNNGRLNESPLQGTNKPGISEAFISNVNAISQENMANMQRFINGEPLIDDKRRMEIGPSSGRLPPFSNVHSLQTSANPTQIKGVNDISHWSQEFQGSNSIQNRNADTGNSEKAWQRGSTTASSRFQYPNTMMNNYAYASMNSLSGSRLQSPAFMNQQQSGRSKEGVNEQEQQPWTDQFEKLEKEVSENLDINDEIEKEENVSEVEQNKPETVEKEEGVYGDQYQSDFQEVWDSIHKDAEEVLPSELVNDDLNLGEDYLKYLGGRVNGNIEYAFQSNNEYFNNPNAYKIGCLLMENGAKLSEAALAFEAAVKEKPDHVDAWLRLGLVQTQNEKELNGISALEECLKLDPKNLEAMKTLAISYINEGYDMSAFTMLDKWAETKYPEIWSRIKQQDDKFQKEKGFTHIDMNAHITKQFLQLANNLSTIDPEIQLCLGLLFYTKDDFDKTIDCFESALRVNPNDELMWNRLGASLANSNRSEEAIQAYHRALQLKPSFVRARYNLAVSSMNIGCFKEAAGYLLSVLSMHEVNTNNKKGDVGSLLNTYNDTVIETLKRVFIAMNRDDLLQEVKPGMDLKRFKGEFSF
Nature of the test: two-hybrid; yeast strain PCY3 co-transformed with Gal4pAD-16mer (pGAD.GH) and Gal4pBD-TPR of PEX5 (pAH987 yeast or hP87 human); quantitative beta-galactosidase activity, cells grown in SC-leu-trp at 30°C; lower limit of around 10 Miller Units per mg protein for a productive interaction.

In test [2] the target is tetratricopeptide repeat (TPR) domain of human PEX5 (Gal4pBD-TPR, plasmid hP87) (Homo sapiens). Described as above.

No end group written: not given here.

Molecule “carboxy-terminal 16-mer of yeast mitochondrial ribosomal protein L2, or MRP7 (Gal4pAD-16mer) (peptide)” gave a beta-galactosidase activity (Units/mg protein) in test [1] of 482.

B1: carboxy-terminal 16-mer of the precursor of lysosomal bovine cathepsin D (Gal4pAD-16mer) (peptide)
chain: FDRDQNRVGLAEAARL
modifications: not fully specified (N-terminus)
Take B1: in test [2], the beta-galactosidase activity (Units/mg protein) turned out to be 310.

B2: carboxy-terminal 16-mer of human tyrosinase (Gal4pAD-16mer) (peptide)
chain: LLMEKEDYHSLYQSHL
In the case of B2, in test [2], the beta-galactosidase activity (Units/mg protein) turned out to be 242.

B3: carboxy-terminal 16-mer of E. coli transaldolase A (Gal4pAD-16mer) (peptide)
chain: FAVDQRKLEDLLAAKL
Regarding B3, the beta-galactosidase activity (Units/mg protein) came out at 566 in test [2] and 164 in test [1].

B4: carboxy-terminal 16-mer of Drosophila sevenless protein (Gal4pAD-16mer) (peptide)
chain: PLKDKQLYANEGVSRL
modifications: not fully specified (N-terminus)
The molecule B4 showed a beta-galactosidase activity (Units/mg protein) in test [2] of 29.

B5: carboxy-terminal 16-mer of frog tyrosinase (Gal4pAD-16mer) (peptide)
chain: LLMEAEDYQATYQSNL
For B5, in test [2], the beta-galactosidase activity (Units/mg protein) came out at 91.

B6: carboxy-terminal 16-mer of Methanopyrus kandleri riboflavin synthase (Gal4pAD-16mer) (peptide)
chain: GMGRREGHPDVGPARL
Consider B6, for which the beta-galactosidase activity (Units/mg protein) in test [2] amounted to 358; in test [1] it was 45.

B7: carboxy-terminal 16 residues of the DHFR-SKL construct (Gal4pAD-16mer) (peptide)
chain: EKGIKYKFEVYEKSKL
In test [1], B7 showed a beta-galactosidase activity (Units/mg protein) of 195.

B8: carboxy-terminal 16-mer of Escherichia coli glutamate-1-semialdehyde 2,1-aminomutase (Gal4pAD-16mer) (peptide)
chain: DINNTIDAARRVFAKL
modifications: not fully specified (N-terminus)
Regarding B8, the beta-galactosidase activity (Units/mg protein) in test [2] turned out to be 473; in test [1], 270.

B9: carboxy-terminal 16-mer of Archaeoglobus fulgidus 2-nitropropane dioxygenase (Gal4pAD-16mer) (peptide)
chain: EEVIRKIAEGLNKAKF
modifications: not fully specified (N-terminus)
Consider B9, for which the beta-galactosidase activity (Units/mg protein) in test [1] is 206.

B10: carboxy-terminal 16-mer of hen egg-white lysozyme (Gal4pAD-16mer) (peptide)
chain: RCKGTDVQAWIRGCRL
Molecule B10 displayed a beta-galactosidase activity (Units/mg protein) in test [2] of 73.

B11: carboxy-terminal 16-mer of dog lysozyme C from milk (Gal4pAD-16mer) (peptide)
chain: HCKGKDLSKYLASCNL
B11: in test [2], the beta-galactosidase activity (Units/mg protein) is 25.

The values above are taken from article PMC545800.
